Assay results as given in publication PMC5201024.

Molecular target: MST3/4 (endogenous MST3 and MST4, m10/m11)
Experiment: co-immunoprecipitation (anti-Myc IP, immunoblot quantification)
Settings: HeLa cells co-transfected with Myc-RHOA-Q63L and GFP-FAM65A full-length; n=3 independent experiments; read off a plot

response (IP/Input ratio (arbitrary units)): 4.6
Substance: RHOA wild type (P61586) Q63L
